Patent US20230295310A1 (ABCELLERA BIOLOGICS, published 2023)
Changes are numbered by the printed parent chain.

Assays:
[1] = molecular target: human EGFR, C-terminal eGFP-tagged, on CHO-K1 cells (human, UniProt P00533 25-1210); assay: cell-based or functional assay
EGFR on HeLa cells = EGFR on HeLa cells (UniProt P00533 25-1210, limits assumed); assay: cell-based or functional assay

B1: GOMP001_bsAb_056 (bispecific antibody, human IgG1, kappa, L234A L235A)
heavy 1: EVNLVESGGGLVQPGRSLRLSCAASGFTFDDYTMHWVRYVPGKGLEWVSNISWNSGSLGYADRVKGRFTISRDNAKDSLYLQMNSLRVEDTALYYCAKDSSGYGHYNSYYMDVWGRGTTVTVSSASTKGPSVFPLAPSSKSTSGGTAALGCLVKDYFPEPVTVSWNSGALTSGVHTFPAVLQSSGLYSLSSVVTVPSSSLGTQTYICNVNHKPSNTKVDKKVEPKSCDKTHTCPPCPAPEAAGGPSVFLFPPKPKDTLMISRTPEVTCVVVDVSHEDPEVKFNWYVDGVEVHNAKTKPREEQYNSTYRVVSVLTVLHQDWLNGKEYKCKVSNKALPAPIEKTISKAKGQPRRPRVYTLPPSREEMTKNQVSLVCLVKGFYPSDIAVEWESNGQPENNYKTTPPVLDSDGSFFLYSVLTVDKSRWQQGNVFSCSVMHEALHNHYTQKSLSLSPG
light 1: DIQMTQSPSSLSASVGDRVTITCRASQSIRNYLNWYQRKPGDAPKVLIYSASSLQSGVPSRFSGSGSGTDFTLTISSLQPEDFASFYCQQTYSTPITFGQGTRLEIKRTVAAPSVFIFPPSDEQLKSGTASVVCLLNNFYPREAKVQWKVDNALQSGNSQESVTEQDSKDSTYSLSSTLTLSKADYEKHKVYACEVTHQGLSSPVTKSFNRGEC
heavy 2: QVQLVQSGAEVKKPGASVKVSCKASGYTFTSHWMHWVRYAPGQGLEWIGEFNPSNGRTNYNEKFKSKATMTVDTSTNTAYMELSSLRSEDTAVYYCASRDYDYDGRYFDYWGRGTLVTVSSASTKGPSVFPLAPSSKSTSGGTAALGCLVKDYFPEPVTVSWNSGALTSGVHTFPAVLQSSGLYSLSSVVTVPSSSLGTQTYICNVNHKPSNTKVDKKVEPKSCDKTHTCPPCPAPEAAGGPSVFLFPPKPKDTLMISRTPEVTCVVVDVSHEDPEVKFNWYVDGVEVHNAKTKPREEQYNSTYRVVSVLTVLHQDWLNGKEYKCKVSNKALPAPIEKTISKAKGQPRRPRVYTLPPSREEMTKNQVSLVCLVKGFYPSDIAVEWESNGQPENNYKTTPPVLDSDGSFFLYSVLTVDKSRWQQGNVFSCSVMHEALHNHYTQKSLSLSPG
light 2: DIQMTQSPSSLSASVGDRVTITCSASSSVTYMYWYQRKPGDAPKLLIYDTSNLASGVPSRFSGSGSGTDYTFTISSLQPEDIATYYCQQWSSHIFTFGQGTKVEIKRTVAAPSVFIFPPSDEQLKSGTASVVCLLNNFYPREAKVQWKVDNALQSGNSQESVTEQDSKDSTYSLSSTLTLSKADYEKHKVYACEVTHQGLSSPVTKSFNRGEC
EC50 CHO-K1 EGFR Low (nM); T cell activation bioassay, luciferase [1]: 0.0291 nM | EC50 CHO-K1 EGFR Med (nM); T cell activation bioassay, luciferase [1]: 0.00412 nM

B2: GOMP001_bsAb_012 (bispecific antibody, human IgG1, kappa, L234A L235A)
heavy 1: EVQLVESGGGLVQPGGSLRLSCAASGFTLSSYTMNWVRKAPGKGLEWVSYISSSSRTIYYSDEVKGRFSISRDNAKNSLYLQMNSLRDEDTALYYCAREDYYDSSGFDNWGQGTLVTVSSASTKGPSVFPLAPSSKSTSGGTAALGCLVADYFPEPVTVSWNSGALTSGVHTFPAVLQSSGLYSLSSVVTVPSSSLGTQTYICNVNHKPSNTKVDEKVEPKSCDKTHTCPPCPAPEAAGGPSVFLFPPKPKDTLMISRTPEVTCVVVDVSHEDPEVKFNWYVDGVEVHNAKTKPREEQYNSTYRVVSVLTVLHQDWLNGKEYKCKVSNKALPAPIEKTISKAKGQPREPQVYTLPPSREEMTDNQVSLTCLVKGFYPSDIAVEWESNGQPENNYKTTPPVLMSDGSFFLASKLTVDKSRWQQGNVFSCSVMHEALHNHYTQKSLSLSPG
light 1: RIRMTQSPSSFSASTGDRVTITCRASQGISSYLAWYQDKPGKAPKLLIYTASTLQSGVPSRFSGSGSGTDFTLTIRSLQSEDFATYYCQQYYSYPRTFGQGTKVEIKRTVAAPSVFIFPPSDKQLKSGTARVVCLLNNFYPREAKVQWKVDNALQSGNSQESVTEQDSKDSTYSLSSTLTLSKADYEKHKVYACEVTHQGLSSPVTKSFNRGEC
heavy 2: B1 heavy 2
light 2: B1 light 2
Max killing % (EGFR on HeLa cells): 93.3% | X… HeLa EC50 (EGFR on HeLa cells): 0.0395 nM

B3: GOMP001_bsAb_011 (bispecific antibody, human IgG1, kappa, L234A L235A)
heavy 1: QVQLVQSGAEVKKPGASVKVSCKASGYTFTSHWMHWVRKAPGQGLEWIGEFNPSNGRTNYNEEFKSKATMTVDTSTNTAYMELSSLRSEDTAVYYCASRDYDYDGRYFDYWGQGTLVTVSSASTKGPSVFPLAPSSKSTSGGTAALGCLVADYFPEPVTVSWNSGALTSGVHTFPAVLQSSGLYSLSSVVTVPSSSLGTQTYICNVNHKPSNTKVDEKVEPKSCDKTHTCPPCPAPEAAGGPSVFLFPPKPKDTLMISRTPEVTCVVVDVSHEDPEVKFNWYVDGVEVHNAKTKPREEQYNSTYRVVSVLTVLHQDWLNGKEYKCKVSNKALPAPIEKTISKAKGQPREPQVYTLPPSREEMTDNQVSLTCLVKGFYPSDIAVEWESNGQPENNYKTTPPVLMSDGSFFLASKLTVDKSRWQQGNVFSCSVMHEALHNHYTQKSLSLSPG
light 1: B1 light 2 with D1R, R37D, D41K, E122K, S130R
heavy 2: EVQLVESGGGLVQPGGSLRLSCAASGFTLSSYTMNWVRYAPGKGLEWVSYISSSSRTIYYSDRVKGRFSISRDNAKNSLYLQMNSLRDEDTALYYCAREDYYDSSGFDNWGRGTLVTVSSASTKGPSVFPLAPSSKSTSGGTAALGCLVKDYFPEPVTVSWNSGALTSGVHTFPAVLQSSGLYSLSSVVTVPSSSLGTQTYICNVNHKPSNTKVDKKVEPKSCDKTHTCPPCPAPEAAGGPSVFLFPPKPKDTLMISRTPEVTCVVVDVSHEDPEVKFNWYVDGVEVHNAKTKPREEQYNSTYRVVSVLTVLHQDWLNGKEYKCKVSNKALPAPIEKTISKAKGQPRRPRVYTLPPSREEMTKNQVSLVCLVKGFYPSDIAVEWESNGQPENNYKTTPPVLDSDGSFFLYSVLTVDKSRWQQGNVFSCSVMHEALHNHYTQKSLSLSPG
light 2: B2 light 1 with R1D, D38R, K42D, K123E, R131S
Max killing % (EGFR on HeLa cells): 77.8% | X… HeLa EC50 (EGFR on HeLa cells): 0.0693 nM
